Measurements published in patent US20160168247A1 (published 2016).

T1: HSC-F (cynomolgus monkey, UniProt Q95LI8 22-171; Q95LI7 23-181)
T1 chain: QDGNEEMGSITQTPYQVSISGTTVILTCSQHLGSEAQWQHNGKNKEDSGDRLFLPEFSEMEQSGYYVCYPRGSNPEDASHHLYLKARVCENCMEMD


Tests used:
HSC-F [1] = target: T1, HSC-F; test: FACS binding; Fig 2A
HSC-F [2] = target: T1, HSC-F; test: FACS binding
HSC-F [3] = target: T1, HSC-F; test: FACS binding

EC50 (HSC-F [2]) | Binder | further results
– | IgG1-huCD3-H1L1 (antibody, V domains shown) VH: EVKLVESGGGLVQPGGSLRLSCAASGFTFNTYAMNWVRQAPGKGLEWVARIRSKYNNYATYYADSVKDRFTISRDDSKSSLYLQMNNLKTEDTAMYYCVRHGNFGNSYVSWFAYWGQGTLVTVSS VL: not shown | EC50 (HSC-F [1]): 0.37 µg/mL
0.25 µg/mL | bsIgG1-huCD3-H1L3xHER2-LFLEDA (bispecific antibody, V domains shown) VH 1: EVKLVESGGGLVQPGGSLRLSCAASGFTFNTYAMNWVRQAPGKGLEWVARIRSKYNNYATYYADSVKDRFTISRDDSKSSLYLQMNNLKTEDTAMYYCVRHGNFGNSYVSWFAYWGQGTLVTVSS VL 1: QAVVTQEPSFSVSPGGTVTLTCRSSTGAVTTSNYANWVQQTPGQAFRGLIGGTNKRAPGVPARFSGSILGNKAALTITGAQADDESDYYCALWYSNLWVFGGGTKLTVL VH 2: QVQLVQSGAEVKKPGASVKVSCKASGYTFTNYGISWVRQAPGQGLEWMGWLSAYSGNTIYAQKLQGRVTMTTDTSTTTAYMELRSLRSDDTAVYYCARDRIVVRPDYFDYWGQGTLVTVSS VL 2: EIVLTQSPATLSLSPGERATLSCRASQSVSSYLAWYQQKPGQAPRLLIYDASNRATGIPARFSGSGSGTDFTLTISSLEPEDFAVYYCQQRSNWPRTFGQGTKVEIK | –
0.32 µg/mL | bsIgG1-huCD3-H1L1xHER2-LFLEDA (bispecific antibody, V domains shown) VH 1: EVKLVESGGGLVQPGGSLRLSCAASGFTFNTYAMNWVRQAPGKGLEWVARIRSKYNNYATYYADSVKDRFTISRDDSKSSLYLQMNNLKTEDTAMYYCVRHGNFGNSYVSWFAYWGQGTLVTVSS VL 1: not shown VH 2: QVQLVQSGAEVKKPGASVKVSCKASGYTFTNYGISWVRQAPGQGLEWMGWLSAYSGNTIYAQKLQGRVTMTTDTSTTTAYMELRSLRSDDTAVYYCARDRIVVRPDYFDYWGQGTLVTVSS VL 2: EIVLTQSPATLSLSPGERATLSCRASQSVSSYLAWYQQKPGQAPRLLIYDASNRATGIPARFSGSGSGTDFTLTISSLEPEDFAVYYCQQRSNWPRTFGQGTKVEIK | –
0.26 µg/mL | bsIgG1-huCD3-H3L3xHER2-LFLEDA (bispecific antibody, V domains shown) VH 1: EVKLVESGGGLVKPGRSLRLSCAASGFTFNTYAMNWVRQAPGKGLEWVARIRSKYNNYATYYADSVKDRFTISRDDSKSILYLQMNSLKTEDTAMYYCVRHGNFGNSYVSWFAYWGQGTLVTVSS VL 1: QAVVTQEPSFSVSPGGTVTLTCRSSTGAVTTSNYANWVQQTPGQAFRGLIGGTNKRAPGVPARFSGSILGNKAALTITGAQADDESDYYCALWYSNLWVFGGGTKLTVL VH 2: QVQLVQSGAEVKKPGASVKVSCKASGYTFTNYGISWVRQAPGQGLEWMGWLSAYSGNTIYAQKLQGRVTMTTDTSTTTAYMELRSLRSDDTAVYYCARDRIVVRPDYFDYWGQGTLVTVSS VL 2: EIVLTQSPATLSLSPGERATLSCRASQSVSSYLAWYQQKPGQAPRLLIYDASNRATGIPARFSGSGSGTDFTLTISSLEPEDFAVYYCQQRSNWPRTFGQGTKVEIK | –
0.28 µg/mL | bsIgG1-huCD3-H3L1xHER2-LFLEDA (bispecific antibody, V domains shown) VH 1: EVKLVESGGGLVKPGRSLRLSCAASGFTFNTYAMNWVRQAPGKGLEWVARIRSKYNNYATYYADSVKDRFTISRDDSKSILYLQMNSLKTEDTAMYYCVRHGNFGNSYVSWFAYWGQGTLVTVSS VL 1: not shown VH 2: QVQLVQSGAEVKKPGASVKVSCKASGYTFTNYGISWVRQAPGQGLEWMGWLSAYSGNTIYAQKLQGRVTMTTDTSTTTAYMELRSLRSDDTAVYYCARDRIVVRPDYFDYWGQGTLVTVSS VL 2: EIVLTQSPATLSLSPGERATLSCRASQSVSSYLAWYQQKPGQAPRLLIYDASNRATGIPARFSGSGSGTDFTLTISSLEPEDFAVYYCQQRSNWPRTFGQGTKVEIK | –
– | IgG1-huCD3-H1L1-LFLEDA (antibody, V domains shown) VH: EVKLVESGGGLVQPGGSLRLSCAASGFTFNTYAMNWVRQAPGKGLEWVARIRSKYNNYATYYADSVKDRFTISRDDSKSSLYLQMNNLKTEDTAMYYCVRHGNFGNSYVSWFAYWGQGTLVTVSS VL: not shown | EC50 (HSC-F [3]): 0.03 µg/mL
